Experimental data reported in patent US20240043568A1 (KEYMED BIOSCIENCES, published 2024).
Substitutions are numbered along the chain they refer to.

Assays:
human CD3 on T cells [1] = target: T1, human CD3 on T cells (human, UniProt P07766 23-207); experiment: flow cytometry, human peripheral blood CD4+ T cells
T1 construct: whole, on cells; The target is the native CD3 complex on cells; The recombinant antigen used elsewhere is the εγ heterodimer; also called CD3 on Jurkat cells; CD3 on human peripheral blood CD4+ and CD8+ T cells
Procedure: Fresh human peripheral blood was taken and PBMCs were isolated by Ficoll-Paque Plus (GE, 17-1440-03). The PBMCs were adjusted to 5×10⁵ cells/mL with 4% calf serum (Hyclone, SH30626.06), and added to a 96-well U-plate at 100 μL/well. The centrifuged supernatant was discarded. 100 μL of gradient diluted antibody (initial concentration: 1800 nM, 3-fold dilution, 11 gradients) was added to each well and incubated at 4° C. for 60 minutes. The secondary antibody Alexa Fluro647 labeled goat anti-human IgG Fc (1:300 dilution) was added at 50 μL/well and incubated on an ice bath for 20 min. After washing once, PI solution was added at 50 μL/well. Incubation was performed for 5 min before detection by flow cytometry (BD Celesta). The GPC3×CD3κλ bispecific antibody can bind to the human peripheral blood T cell with low affinity.

[2] = target: T2, human CD3εγ-Fc heterodimer (human); experiment: SPR (Biacore T200), CD3εγ amine-coupled to the chip, antibody as analyte
T2 construct: also called human CD3 εγ protein; recombinant CD3 εγ protein
T2 chain 1: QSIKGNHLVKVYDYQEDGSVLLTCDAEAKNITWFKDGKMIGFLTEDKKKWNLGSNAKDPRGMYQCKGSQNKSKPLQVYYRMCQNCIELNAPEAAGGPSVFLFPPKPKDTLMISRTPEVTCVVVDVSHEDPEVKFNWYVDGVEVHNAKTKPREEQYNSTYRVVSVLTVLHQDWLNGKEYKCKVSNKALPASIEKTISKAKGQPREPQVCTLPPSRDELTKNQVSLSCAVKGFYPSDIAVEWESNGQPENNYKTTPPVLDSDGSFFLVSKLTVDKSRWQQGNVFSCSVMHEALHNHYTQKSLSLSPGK
T2 chain 2: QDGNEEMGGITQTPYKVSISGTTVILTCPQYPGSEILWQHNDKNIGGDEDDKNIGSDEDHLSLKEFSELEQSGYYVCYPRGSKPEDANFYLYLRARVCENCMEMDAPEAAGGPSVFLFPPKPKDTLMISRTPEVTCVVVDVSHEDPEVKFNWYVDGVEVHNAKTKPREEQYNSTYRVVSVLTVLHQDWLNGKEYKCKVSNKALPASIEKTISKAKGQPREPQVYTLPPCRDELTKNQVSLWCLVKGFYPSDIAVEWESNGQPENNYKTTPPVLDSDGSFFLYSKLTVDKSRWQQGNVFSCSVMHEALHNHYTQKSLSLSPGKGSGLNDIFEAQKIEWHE
Procedure: Human or monkey CD3 εγ recombinant antigen at 10 μg/mL was bound to a CMS chip (GE healthcare) by amino coupling, and the antigen binding capacity was controlled to approximately 200 RU. After the baseline was stable, gradient diluted antibodies (initially with 10 μg/mL, 2-fold dilution, 7 gradients) were flowed through the chip at a flow rate of 30 μL/min, with an association time of 350 seconds and a dissociation time of 600 seconds. The kinetic constants were obtained by fitting with 1:1 binding model using Biacore T200 evaluation software.

human CD3 on T cells [3] = target: T1, human CD3 on T cells; experiment: flow cytometry, Jurkat cells
Procedure: Jurkat cells in the logarithmic growth phase were taken, added with 200 μg/mL of murine IgG (Jackson ImmunoResearch, 115-005-03), and incubated on ice for 30 minutes. The cells were adjusted to 5×10⁵ cells/mL with 4% calf serum and added to a 96-well U-shaped plate at 100 μl/well. The centrifugation was performed at 300 g. The supernatant was discarded. 100 μL of gradient diluted antibody (initial concentration: 1800 nM, 3-fold dilution, 10 gradients) was added to each well, and incubated at 4° C. for 60 min. The secondary antibody Alexa Fluro647 labeled goat anti-human IgG Fc (1:300 dilution) was added at 50 μL/well and incubated on ice for 20 min. After washing once, PI solution was added at 50 μL/well. Incubation was performed for 5 min before detection by flow cytometry (BD C6).

[4] = target: T3, cynomolgus monkey GPC3 on CHO cells (cynomolgus monkey, UniProt A0A2K5VK50 24-579); experiment: flow cytometry, CHO-cynomolgus monkey GPC3 cells
T3 construct: whole, on cells; also called CHO-cynoGPC3 (clone 4D6); CHO-cynomolgus monkey GPC3
Procedure: (§1) CHO-human GPC3 and CHO-cynomolgus monkey GPC3 stably-transfected cells in the logarithmic growth phase were taken, adjusted to 5×10⁵ cells/ml using 4% calf serum (Hyclone, SH30626.06), and added to a 96-well U-shaped plate at 100 μl/well cell suspension. The centrifugation was performed at 300 g for 5 min. The supernatant was discarded. 100 μL of gradient diluted antibody (initial concentration: 1800 nM, 3-fold dilution, 10 gradients) was added to each well, and incubated at 4° C. for 60 min. The secondary antibody Alexa Fluro647 labeled goat anti-human IgG Fc (1:300 dilution) was added at 50 μL/well and incubated on ice for 20 min. After washing once, propidium iodide solution (1:300) was added at 50 μL/well. Incubation was performed for 5 min before detection by flow cytometry.

human GPC3 on cells [5] = target: T4, human GPC3 on cells (human, UniProt P51654 25-563); experiment: flow cytometry, HepG2 cells
T4 construct: whole, on cells; One molecule is used for both CHO-hGPC3 transfectants and GPC3+ HepG2 cells; The assay field names the cell; also called CHO-hGPC3 (clone 2B10); CHO-human GPC3
Procedure: HepG2 cells in the logarithmic growth phase were taken, added with 200 μg/mL of murine IgG (Jackson ImmunoResearch, 115-005-03), and blocked on an ice bath for 30 min. The cells were adjusted to 5×10⁵ cells/mL with 4% calf serum and added to a 96-well U-shaped plate at 100 μl/well. The centrifugation was performed at 300 g for 5 min. The supernatant was discarded. 100 μL of gradient diluted antibody (initial concentration: 1800 nM, 3-fold dilution, 10 gradients) was added to each well, and incubated at 4° C. for 60 min. The primary antibody was washed, added with Alexa Fluro647 labeled goat anti-human IgG Fc (1:300 dilution) 50 μL/well, and incubated on ice for 20 min. After washing once, PI solution was added at 50 μL/well. Incubation was performed for 5 min before detection by flow cytometry. The GPC3×CD3κλ bispecific antibody can bind to GPC3+ tumor cell HepG2 with high affinity.

human GPC3 on cells [6] = target: T4, human GPC3 on cells; experiment: flow cytometry, CHO-human GPC3 cells
Procedure: as §1

B1: GPC3×CD3 κλ002 (bispecific antibody, human IgG4 S228P, kappa, lambda)
light 1: DVVMTQSPLSLPVTPGEPASISCRSSQSIVHSNGNTYLEWYLKKPGQSPQLLIYKVSNRFSGVPDRFSGSGSGTDFTLKISRVEAEDVGVYFCLQVTHVPLTFGQGTKLEIKRTVAAPSVFIFPPSDEQLKSGTASVVCLLNNFYPREAKVQWKVDNALQSGNSQESVTEQDSKDSTYSLSSTLTLSKADYEKHKVYACEVTHQGLSSPVTKSFNRGEC
heavy 1: QVQLVQSGAEVKKPGSSVKVSCKASGYTFADYEIHWVREAPGQGLEWMGAIHPGSGGTAYAQKFQGRVTLTADESSTTAYMELSSLRSEDTAVYYCTRYYSFAYWGQGTLVTVSSASTKGPSVFPLAPCSRSTSESTAALGCLVKDYFPEPVTVSWNSGALTSGVHTFPAVLQSSGLYSLSSVVTVPSSSLGTKTYTCNVDHKPSNTKVDKRVESKYGPPCPPCPAPEFEGGPSVFLFPPKPKDTLMISRTPEVTCVVVDVSQEDPEVQFNWYVDGVEVHNAKTKPREEQFNSTYRVVSVLTVLHQDWLNGKEYKCKVSNKGLASSIEKTISKAKGQPREPQVCTLPPSQEEMTKNQVSLSCAVKGFYPSDIAVEWESNGQPENNYKTTPPVLDSDGSFFLVSKLTVDKSRWQEGNVFSCSVMHEALHNHYTQKSLSLSLGK
light 2: QAVVTQEPSLTVSPGGTVTLTCRSSTGAVTTSNYANWVQEKPGQAPRGLIGGTNKRAPWTPARFSGSLLGGKAALTITGAQAEDEAEYYCVLWYSNLWVFGGGTKLTVLGQPKAAPSVTLFPPSSEELQANKATLVCLISDFYPGAVTVAWKADSSPVKAGVETTTPSKQSNNKYAASSYLSLTPEQWKSHRSYSCQVTHEGSTVEKTVAPTECS
heavy 2: EVQLVESGGGLVQPGGSLRLSCAASGFTFNTYAMNWVRKAPGKGLEWVGRIRSKYNNYATYYADSVKDRFTISRDDSKNSLYLQMNSLKTEDTAVYYCVRHGNFGNSYVSWFAYWGQGTLVTVSSASTKGPSVFPLAPCSRSTSESTAALGCLVKDYFPEPVTVSWNSGALTSGVHTFPAVLQSSGLYSLSSVVTVPSSSLGTKTYTCNVDHKPSNTKVDKRVESKYGPPCPPCPAPEFEGGPSVFLFPPKPKDTLMISRTPEVTCVVVDVSQEDPEVQFNWYVDGVEVHNAKTKPREEQFNSTYRVVSVLTVLHQDWLNGKEYKCKVSNKGLASSIEKTISKAKGQPREPQVYTLPPCQEEMTKNQVSLWCLVKGFYPSDIAVEWESNGQPENNYKTTPPVLDSDGSFFLYSKLTVDKSRWQEGNVFSCSVMHEALHNHYTQKSLSLSLGK
notes: also called GPC3 x CD3 κλ002; GPC3×CD3κλ bispecific antibody
EC50 (human CD3 on T cells [1]): 65 nM
Kd [2]: 15.9 nM
EC50 (human CD3 on T cells [3]): 36 nM
EC50 [4]: 3 nM
EC50 (human GPC3 on cells [5]): 2.1 nM
EC50 (human GPC3 on cells [6]): 2.8 nM

B2: GPC3×CD3 κλ003 (bispecific antibody, human IgG4 S228P, kappa, lambda)
light 1: B1 light 1 with E128K, Q129K
heavy 1: B1 heavy 1 with K145E, K211E
light 2: B1 light 2
heavy 2: B1 heavy 2
notes: also called GPC3 x CD3 κλ003; GPC3×CD3κλ bispecific antibody
EC50 (human CD3 on T cells [1]): 56 nM
Kd [2]: 12.1 nM
EC50 (human CD3 on T cells [3]): 26 nM
EC50 [4]: 3 nM
EC50 (human GPC3 on cells [5]): 2.5 nM
EC50 (human GPC3 on cells [6]): 2.9 nM
